This note sets out measurements from the array DNA melting data of Ke et al..

For orientation: Tm means the temperature at which the thermal transition is half complete.

This data set is described as follows: melting temperature; melt of duplexes. To be noted: sodium 0.0675 M; strand 1 µM.
Turning to “CGACGTGCTGGATGTGCTG+CAGCACATGCTGCACGTCG ((((((((.(.((((((((+)))))))).).))))))))”, the Tm amounted to 54.8 °C. Consider “CGACGTGCTGCATGTGCTG+CAGCACATTCCGCACGTCG ((((((((.(.((((((((+)))))))).).))))))))”, for which the Tm was determined as 49.3 °C. Regarding “CGACGTGCATAATGTGCTG+CAGCACATGAAGCACGTCG ((((((((.(.((((((((+)))))))).).))))))))”, the Tm came to 52.8 °C. As to “CGACGTGCATAATGTGCTG+CAGCACATCGAGCACGTCG ((((((((...((((((((+))))))))...))))))))”, the melting temperature (Tm) stood at 48.5 °C.

As for “CGACGTGCGGGATGTGCTG+CAGCACATCTCGCACGTCG (((((((((.(((((((((+))))))))).)))))))))”, the Tm came out at 62.3 °C.

Take “CGACGTGCAAAATGTGCTG+CAGCACATTGGGCACGTCG ((((((((..(((((((((+)))))))))..))))))))”: the Tm came out at 54 °C. On to “CGACGTGCGCGATGTGCTG+CAGCACATAGTGCACGTCG ((((((((.(.((((((((+)))))))).).))))))))”, for which the melting temperature (Tm) was determined as 53.7 °C. As for “CGACGTGCTTTATGTGCTG+CAGCACATGGTGCACGTCG ((((((((...((((((((+))))))))...))))))))”, the midpoint of thermal melting (Tm) is 45.6 °C. The result for “CGACGTGCCGTATGTGCTG+CAGCACATTAGGCACGTCG (((((((((..((((((((+))))))))..)))))))))” reads 57.1 °C; that for “CGACGTGCTCAATGTGCTG+CAGCACATTGAGCACGTCG (((((((((((((((((((+)))))))))))))))))))”, 64.2 °C; that for “CGACGTGCAAAATGTGCTG+CAGCACATGCGGCACGTCG ((((((((...((((((((+))))))))...))))))))”, 51.2 °C.

For the substance “CGACGTGCAACATGTGCTG+CAGCACATCCGGCACGTCG ((((((((...((((((((+))))))))...))))))))”, the Tm was found to be 47.7 °C.

Turning to “CGACGTGCACAATGTGCTG+CAGCACATACAGCACGTCG ((((((((...((((((((+))))))))...))))))))”, the Tm worked out at 45.4 °C. To “CGACGTGCCGTATGTGCTG+CAGCACATGTAGCACGTCG ((((((((...((((((((+))))))))...))))))))” belongs 49.1 °C; to “CGACGTGCTCGATGTGCTG+CAGCACATGAAGCACGTCG (((((((((..((((((((+))))))))..)))))))))”, 52.8 °C.

In the case of “CGACGTGCGATATGTGCTG+CAGCACATGTAGCACGTCG ((((((((.(.((((((((+)))))))).).))))))))”, the midpoint of thermal melting (Tm) stood at 54.9 °C. For “CGACGTGCATGATGTGCTG+CAGCACATGTAGCACGTCG ((((((((...((((((((+))))))))...))))))))”, the Tm was 49.9 °C.

Turning to “CGACGTGCGCTATGTGCTG+CAGCACATTTAGCACGTCG ((((((((...((((((((+))))))))...))))))))”, the Tm amounted to 51.6 °C. Consider “CGACGTGCCCCATGTGCTG+CAGCACATGTAGCACGTCG ((((((((..(((((((((+)))))))))..))))))))”, for which the midpoint of thermal melting (Tm) came to 51.9 °C.

For the substance “CGACGTGCGGGATGTGCTG+CAGCACATTAGGCACGTCG ((((((((...((((((((+))))))))...))))))))”, the Tm worked out at 51.9 °C. With “CGACGTGCGAGATGTGCTG+CAGCACATAGTGCACGTCG ((((((((...((((((((+))))))))...))))))))”, the Tm turned out to be 47.6 °C. “CGACGTGCGCAATGTGCTG+CAGCACATGACGCACGTCG (((((((((..((((((((+))))))))..)))))))))”: the Tm turned out to be 54.4 °C. As for “CGACGTGCTGTATGTGCTG+CAGCACATAGCGCACGTCG ((((((((..(((((((((+)))))))))..))))))))”, the melting temperature (Tm) came out at 49.9 °C. As for “CGACGTGCCCCATGTGCTG+CAGCACATTGGGCACGTCG ((((((((((.((((((((+)))))))).))))))))))”, the Tm came out at 58.5 °C.

On to “CGACGTGCGCAATGTGCTG+CAGCACATTAGGCACGTCG ((((((((..(((((((((+)))))))))..))))))))”, for which the Tm was determined as 52.7 °C. The result for “CGACGTGCAGTATGTGCTG+CAGCACATCATGCACGTCG (((((((((..((((((((+))))))))..)))))))))” reads 51.4 °C; that for “CGACGTGCGACATGTGCTG+CAGCACATCAGGCACGTCG ((((((((...((((((((+))))))))...))))))))”, 49 °C. The result for “CGACGTGCGCAATGTGCTG+CAGCACATAGAGCACGTCG ((((((((.(.((((((((+)))))))).).))))))))” reads 54.7 °C; that for “CGACGTGCGTAATGTGCTG+CAGCACATCCCGCACGTCG (((((((((..((((((((+))))))))..)))))))))”, 53.5 °C. In the case of “CGACGTGCAGGATGTGCTG+CAGCACATTGAGCACGTCG ((((((((...((((((((+))))))))...))))))))”, the melting temperature (Tm) came out at 50.6 °C. On to “CGACGTGCGAAATGTGCTG+CAGCACATTGAGCACGTCG ((((((((..(((((((((+)))))))))..))))))))”, for which the melting temperature (Tm) turned out to be 61.3 °C. With “CGACGTGCCGCATGTGCTG+CAGCACATAATGCACGTCG ((((((((...((((((((+))))))))...))))))))”, the Tm came out at 47.9 °C.

Regarding “CGACGTGCTGTATGTGCTG+CAGCACATCCGGCACGTCG ((((((((.(.((((((((+)))))))).).))))))))”, the Tm amounted to 52.8 °C.

On to “CGACGTGCATAATGTGCTG+CAGCACATGTTGCACGTCG (((((((((..((((((((+))))))))..)))))))))”, for which the Tm came to 53.7 °C. “CGACGTGCTTTATGTGCTG+CAGCACATCCGGCACGTCG ((((((((...((((((((+))))))))...))))))))”: the Tm was found to be 48.2 °C. “CGACGTGCCAAATGTGCTG+CAGCACATAAGGCACGTCG (((((((((..((((((((+))))))))..)))))))))”: the Tm worked out at 54.4 °C. As to “CGACGTGCTCGATGTGCTG+CAGCACATCCGGCACGTCG ((((((((..(((((((((+)))))))))..))))))))”, the Tm stood at 53.7 °C.

With “CGACGTGCTAAATGTGCTG+CAGCACATTCCGCACGTCG ((((((((..(((((((((+)))))))))..))))))))”, the Tm worked out at 50.1 °C. Turning to “CGACGTGCTAGATGTGCTG+CAGCACATCATGCACGTCG ((((((((..(((((((((+)))))))))..))))))))”, the Tm was found to be 55.6 °C. On to “CGACGTGCACGATGTGCTG+CAGCACATCAGGCACGTCG ((((((((..(((((((((+)))))))))..))))))))”, for which the midpoint of thermal melting (Tm) is 53.4 °C. The result for “CGACGTGCAGGATGTGCTG+CAGCACATTCAGCACGTCG ((((((((.(.((((((((+)))))))).).))))))))” reads 54.1 °C; that for “CGACGTGCACCATGTGCTG+CAGCACATGAAGCACGTCG ((((((((..(((((((((+)))))))))..))))))))”, 51 °C; that for “CGACGTGCGTTATGTGCTG+CAGCACATGCGGCACGTCG ((((((((...((((((((+))))))))...))))))))”, 49.6 °C. Turning to “CGACGTGCATCATGTGCTG+CAGCACATTACGCACGTCG ((((((((.(.((((((((+)))))))).).))))))))”, the Tm was 48.1 °C. As to “CGACGTGCTAGATGTGCTG+CAGCACATGGTGCACGTCG ((((((((...((((((((+))))))))...))))))))”, the midpoint of thermal melting (Tm) was 46.9 °C.

Take “CGACGTGCAATATGTGCTG+CAGCACATGGAGCACGTCG ((((((((...((((((((+))))))))...))))))))”: the melting temperature (Tm) was found to be 51 °C. In the case of “CGACGTGCTCCATGTGCTG+CAGCACATCCGGCACGTCG ((((((((...((((((((+))))))))...))))))))”, the Tm amounted to 47.7 °C. Regarding “CGACGTGCGGCATGTGCTG+CAGCACATAATGCACGTCG ((((((((...((((((((+))))))))...))))))))”, the midpoint of thermal melting (Tm) is 51.1 °C.

“CGACGTGCCAGATGTGCTG+CAGCACATACCGCACGTCG ((((((((...((((((((+))))))))...))))))))”: the Tm worked out at 47.6 °C. As for “CGACGTGCGCCATGTGCTG+CAGCACATGTGGCACGTCG ((((((((..(((((((((+)))))))))..))))))))”, the Tm turned out to be 54.1 °C. “CGACGTGCAAGATGTGCTG+CAGCACATCGAGCACGTCG ((((((((..(((((((((+)))))))))..))))))))”: the Tm was found to be 57.9 °C. In the case of “CGACGTGCCGTATGTGCTG+CAGCACATTTCGCACGTCG ((((((((...((((((((+))))))))...))))))))”, the midpoint of thermal melting (Tm) is 48.5 °C. The result for “CGACGTGCTAGATGTGCTG+CAGCACATTGAGCACGTCG (((((((((..((((((((+))))))))..)))))))))” reads 54 °C. Turning to “CGACGTGCTTTATGTGCTG+CAGCACATCATGCACGTCG ((((((((.(.((((((((+)))))))).).))))))))”, the midpoint of thermal melting (Tm) is 49.2 °C.

Turning to “CGACGTGCTAGATGTGCTG+CAGCACATACGGCACGTCG ((((((((...((((((((+))))))))...))))))))”, the melting temperature (Tm) is 49.9 °C.

For “CGACGTGCCGGATGTGCTG+CAGCACATTTCGCACGTCG ((((((((...((((((((+))))))))...))))))))”, the Tm was determined as 49.1 °C. The result for “CGACGTGCGGGATGTGCTG+CAGCACATTCCGCACGTCG ((((((((((.((((((((+)))))))).))))))))))” reads 62.8 °C. “CGACGTGCTTGATGTGCTG+CAGCACATTGTGCACGTCG ((((((((...((((((((+))))))))...))))))))”: the Tm was 47.2 °C. For the substance “CGACGTGCCGGATGTGCTG+CAGCACATTCGGCACGTCG ((((((((((.((((((((+)))))))).))))))))))”, the Tm was 62.4 °C. The result for “CGACGTGCTCGATGTGCTG+CAGCACATGGTGCACGTCG ((((((((.(.((((((((+)))))))).).))))))))” reads 49.7 °C; that for “CGACGTGCTTGATGTGCTG+CAGCACATTACGCACGTCG ((((((((.(.((((((((+)))))))).).))))))))”, 50.1 °C; that for “CGACGTGCAATATGTGCTG+CAGCACATTCGGCACGTCG ((((((((...((((((((+))))))))...))))))))”, 49.5 °C.

For the substance “CGACGTGCTTCATGTGCTG+CAGCACATCATGCACGTCG ((((((((.(.((((((((+)))))))).).))))))))”, the Tm was 49.2 °C. To “CGACGTGCGCGATGTGCTG+CAGCACATAGAGCACGTCG ((((((((.(.((((((((+)))))))).).))))))))” belongs 55.8 °C. For the substance “CGACGTGCTAGATGTGCTG+CAGCACATTGCGCACGTCG ((((((((...((((((((+))))))))...))))))))”, the Tm worked out at 49.2 °C. To “CGACGTGCCCTATGTGCTG+CAGCACATGAAGCACGTCG ((((((((...((((((((+))))))))...))))))))” belongs 49 °C.
